Test results: paper PMC6195595 (2018)
Where a chain is given by its changes, count along the chain named.

Key:
Experiment in all cases: ITC
[1] = molecular target: Kj12A-^CDD peptide (C-terminal docking domain of Kj12A) (Xenorhabdus stockiae KJ12.1)
[2] = molecular target: Kj12B-^CDD_(short) peptide G1566A (printed as G1565 replaced with alanine) (Xenorhabdus stockiae KJ12.1)
[3] = molecular target: Kj12B-^CDD_(short) peptide L1564A (Xenorhabdus stockiae KJ12.1, L1564A (stands in the printed letters))
[4] = molecular target: Kj12B-CDDshort R1565E peptide (Xenorhabdus stockiae KJ12.1, R1565E (stands in the printed letters))
[5] = molecular target: T1, Kj12C-^NDD Q26K, E28A (modified Kj12C-^NDD) (Xenorhabdus stockiae KJ12.1)
T1 chain: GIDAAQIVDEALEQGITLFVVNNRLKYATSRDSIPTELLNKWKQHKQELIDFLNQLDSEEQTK

B1: Kj12B-^NDD (N-terminal docking domain of Kj12B) (domain or fragment)
chain: MKNAAKIVNEALNQGITLFVSDNKLKYKTNRDSIPSELLEEWKQHKQELIDFLTQLESEEES
[1]
  Kd: > 100 µM

B2: Kj12C-^NDD (N-terminal docking domain of Kj12C) (domain or fragment)
chain: T1 chain with K26Q, A28E
[2]
  Kd: > 100 µM
[3]
  Kd: > 100 µM
[4]
  Kd: > 100 µM

B3: Kj12B-^CDD peptide (C-terminal docking domain of Kj12B) (peptide)
peptide: LLKEKRKHFQAEQNSSQEYLRGEI
modifications: Limits taken from PDB 6EWU (isolated NDD). Residue 1 is Gly as in the entity, possibly a SUMO-cleavage/cloning replacement of the native Met. In vivo, the variant was in full-length Kj12C.
[5]
  Kd: 80 µM

B4: Kj12A-^NDD (N-terminal docking domain of Kj12A) (domain or fragment)
chain: MKNAAQIVDEALNQGITLFVADNRLQYETSRDNIPEELLNEWKYYRQDLIDFLQQLDAKEETQ
[1]
  Kd: > 100 µM
